From publication PMC9316223, “Can Modern Molecular Modeling Methods Help Find the Area of Potential Vulnerability of Flaviviruses?” (International Journal of Molecular Sciences, 2022)

How the values were obtained:
Conditions in all cases: both partners purified
[1] = biological target: T1, TEF1, fragment of TBEV E protein containing 1-187 aa (Tick-borne encephalitis virus, strain …, UniProt Q01299); assay: far-Western, overlay or dot blot
T1 construct: source: E. coli BL21(DE3), purified (lysis buffer with 8 M urea, Ni-IMAC Sepharose)

[2] = biological target: T2, WEF1, fragment of WNV E protein containing 1-186 aa (West Nile virus, strain 956 …, UniProt P06935); assay: far-Western, overlay or dot blot; dot blot: recombinant proteins (1 µL at 1.5 mg/mL) adsorbed onto nitrocellulose; 10H10 mAb 2 μg/mL in PBS, 0.1% Tween-20, 1% BSA for 10 min; detected with goat anti-mouse IgG conjugated with alkaline phosphatase
T2 construct: envelope protein E of West Nile virus strain 956 (genome NC_001563.2), residues 1-186; numbers count on: the E protein (cut product of the polyprotein); Cloned into pET32 (BamHI/XhoI); the vector may add further linker and tag residues between thioredoxin and the insert; source: E. coli BL21(DE3), purified (lysis buffer with 8 M urea, Ni-IMAC Sepharose)

[3] = biological target: T3, ZEF1, fragment of ZIKV E protein containing 1-187 aa (Zika virus, strain MR-766 (KX377335.1), UniProt A0A192GPS6); assay: as above
T3 construct: envelope protein E of Zika virus strain MR-766 (genome KX377335.1), residues 1-187; numbers count on: the E protein (cut product of the polyprotein); Cloned into pET32 (NcoI/XhoI); the vector may add further linker and tag residues; The UniProt entry recalled is of strain Mr 766 from another GenBank record and may differ in a few residues from KX377335.1; source: E. coli BL21(DE3), purified …

[4] = biological target: T4, DEF1, fragment of DENV E protein containing 1-184 aa (Dengue virus 3, strain Sri …, UniProt Q6YMS4); assay: as above
T4 construct: envelope protein E of dengue virus 3 strain Sri Lanka/1266/2000 (genome AY099336.1), residues 1-184; numbers count on: the E protein (cut product of the polyprotein); Cloned into pET32 (BamHI/XhoI); the vector may add further linker and tag residues; source: E. coli BL21(DE3), purified (lysis buffer with 8 M urea, Ni-IMAC Sepharose)

Measured: binding result

T1 sequence (Q01299 whole entry, looked up, the tested form may be a part): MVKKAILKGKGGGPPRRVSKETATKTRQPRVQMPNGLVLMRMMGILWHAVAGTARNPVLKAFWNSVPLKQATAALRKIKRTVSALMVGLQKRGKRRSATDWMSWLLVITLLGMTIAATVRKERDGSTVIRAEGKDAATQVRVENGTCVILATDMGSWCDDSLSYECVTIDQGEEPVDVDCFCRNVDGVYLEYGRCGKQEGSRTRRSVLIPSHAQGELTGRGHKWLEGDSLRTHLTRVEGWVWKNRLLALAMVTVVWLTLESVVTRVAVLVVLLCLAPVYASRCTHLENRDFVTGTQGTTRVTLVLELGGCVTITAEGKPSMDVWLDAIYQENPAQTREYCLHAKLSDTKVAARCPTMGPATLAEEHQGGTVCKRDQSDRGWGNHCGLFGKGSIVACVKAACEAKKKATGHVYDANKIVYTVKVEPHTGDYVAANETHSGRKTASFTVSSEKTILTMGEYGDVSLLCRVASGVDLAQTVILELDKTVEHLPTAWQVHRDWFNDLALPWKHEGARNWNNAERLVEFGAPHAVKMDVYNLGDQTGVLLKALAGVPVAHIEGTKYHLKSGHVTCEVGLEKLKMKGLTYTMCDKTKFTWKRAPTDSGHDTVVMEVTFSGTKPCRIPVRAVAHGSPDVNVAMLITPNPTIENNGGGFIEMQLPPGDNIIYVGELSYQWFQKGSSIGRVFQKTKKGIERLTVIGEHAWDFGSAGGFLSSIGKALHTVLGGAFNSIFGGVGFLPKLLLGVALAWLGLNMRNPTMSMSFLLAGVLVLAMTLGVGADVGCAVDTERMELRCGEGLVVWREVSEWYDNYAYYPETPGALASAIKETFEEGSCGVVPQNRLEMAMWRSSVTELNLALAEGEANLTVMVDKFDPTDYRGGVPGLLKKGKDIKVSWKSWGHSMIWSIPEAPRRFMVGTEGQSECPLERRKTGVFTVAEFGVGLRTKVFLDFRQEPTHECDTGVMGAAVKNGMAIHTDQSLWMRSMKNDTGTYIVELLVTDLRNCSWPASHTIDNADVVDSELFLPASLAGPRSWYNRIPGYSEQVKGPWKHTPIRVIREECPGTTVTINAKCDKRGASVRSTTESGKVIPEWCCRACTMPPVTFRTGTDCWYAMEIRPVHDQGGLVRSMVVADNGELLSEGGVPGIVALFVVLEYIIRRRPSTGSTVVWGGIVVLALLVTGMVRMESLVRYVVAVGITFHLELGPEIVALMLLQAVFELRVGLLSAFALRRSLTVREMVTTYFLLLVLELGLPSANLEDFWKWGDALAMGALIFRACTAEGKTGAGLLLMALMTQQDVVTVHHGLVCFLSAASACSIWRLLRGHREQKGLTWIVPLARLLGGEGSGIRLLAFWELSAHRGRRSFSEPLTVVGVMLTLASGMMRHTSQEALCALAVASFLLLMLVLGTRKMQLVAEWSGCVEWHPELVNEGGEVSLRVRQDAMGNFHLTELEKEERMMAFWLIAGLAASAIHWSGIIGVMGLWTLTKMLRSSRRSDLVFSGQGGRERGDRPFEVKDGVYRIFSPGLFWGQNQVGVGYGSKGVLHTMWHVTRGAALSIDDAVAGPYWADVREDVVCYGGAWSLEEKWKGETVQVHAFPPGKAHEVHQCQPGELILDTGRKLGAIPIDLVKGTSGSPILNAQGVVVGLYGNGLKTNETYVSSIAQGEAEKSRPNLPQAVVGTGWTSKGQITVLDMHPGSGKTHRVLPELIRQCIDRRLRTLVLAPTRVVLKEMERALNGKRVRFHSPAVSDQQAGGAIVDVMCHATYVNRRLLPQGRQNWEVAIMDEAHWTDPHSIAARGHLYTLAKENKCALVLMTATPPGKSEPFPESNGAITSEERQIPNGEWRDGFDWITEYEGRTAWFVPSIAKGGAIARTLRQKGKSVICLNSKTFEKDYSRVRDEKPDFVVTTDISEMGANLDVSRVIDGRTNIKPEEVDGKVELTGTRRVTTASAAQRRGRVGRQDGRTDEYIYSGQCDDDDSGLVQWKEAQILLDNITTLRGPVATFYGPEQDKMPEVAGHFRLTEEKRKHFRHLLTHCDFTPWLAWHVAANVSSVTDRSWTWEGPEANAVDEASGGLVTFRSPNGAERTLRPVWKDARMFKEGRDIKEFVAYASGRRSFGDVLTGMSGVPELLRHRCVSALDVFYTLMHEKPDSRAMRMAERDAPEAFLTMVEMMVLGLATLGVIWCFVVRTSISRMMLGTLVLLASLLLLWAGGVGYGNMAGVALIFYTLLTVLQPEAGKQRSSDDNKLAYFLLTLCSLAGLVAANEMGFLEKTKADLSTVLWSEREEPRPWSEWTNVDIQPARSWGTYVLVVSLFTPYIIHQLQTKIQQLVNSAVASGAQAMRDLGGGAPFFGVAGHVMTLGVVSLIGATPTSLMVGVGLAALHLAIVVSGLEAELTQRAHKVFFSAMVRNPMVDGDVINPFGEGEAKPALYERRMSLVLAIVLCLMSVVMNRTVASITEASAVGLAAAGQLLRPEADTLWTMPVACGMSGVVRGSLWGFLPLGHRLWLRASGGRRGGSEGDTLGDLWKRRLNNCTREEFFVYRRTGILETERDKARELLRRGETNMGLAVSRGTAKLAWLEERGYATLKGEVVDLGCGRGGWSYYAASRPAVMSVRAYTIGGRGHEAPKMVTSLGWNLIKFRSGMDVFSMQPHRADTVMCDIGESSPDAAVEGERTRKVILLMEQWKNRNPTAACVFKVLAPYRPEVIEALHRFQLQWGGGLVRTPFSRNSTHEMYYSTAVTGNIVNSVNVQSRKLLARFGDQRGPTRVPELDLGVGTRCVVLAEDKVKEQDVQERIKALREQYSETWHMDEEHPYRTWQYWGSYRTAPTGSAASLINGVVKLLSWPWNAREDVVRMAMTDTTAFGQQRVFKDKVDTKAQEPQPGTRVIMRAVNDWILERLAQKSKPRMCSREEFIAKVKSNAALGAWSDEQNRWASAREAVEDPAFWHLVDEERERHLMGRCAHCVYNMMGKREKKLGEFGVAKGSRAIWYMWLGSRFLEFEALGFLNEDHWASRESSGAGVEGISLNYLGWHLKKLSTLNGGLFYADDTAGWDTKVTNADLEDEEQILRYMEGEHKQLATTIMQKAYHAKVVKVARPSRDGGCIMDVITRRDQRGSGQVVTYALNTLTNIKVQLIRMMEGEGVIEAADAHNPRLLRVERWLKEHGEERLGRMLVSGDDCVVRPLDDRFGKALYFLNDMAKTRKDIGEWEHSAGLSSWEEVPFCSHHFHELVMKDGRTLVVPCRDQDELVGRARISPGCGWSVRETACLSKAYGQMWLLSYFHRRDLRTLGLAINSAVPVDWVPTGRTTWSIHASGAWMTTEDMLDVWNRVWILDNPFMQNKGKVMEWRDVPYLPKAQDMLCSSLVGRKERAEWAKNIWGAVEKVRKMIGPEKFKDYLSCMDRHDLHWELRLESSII

B1: 10H10 monoclonal antibody (antibody, V domains shown)
VH: VKLEESGGGLVKPGGSLKLSCAASGFSFSDYYMYWVRQTPEKRLEWVATISDGGSHTSYRDSVKGRFTISRDNGKNNLYLQMSSLKSEDTAMYYCVRGAYWGQGTLVTVSS
VL: not shown
notes: also called 10H10 mAb; 10H10 antibody
binds: all assays above
